Data set [1] can be described thus: Specific surface area by inverse gas chromatography-surface energy analyzer. It is filed as physicochemical. From the text: The specific surface areas of the bulk drug semaglutide, excipient leucine and powder formulation were respectively detected by an inverse gas chromatography-surface energy analyzer.
The conditions of data set [2]: injectable and oral formulations; cited from earlier work.

In data set [1], `CC(C)C[C@H](N)C(=O)O` [Excipient leucine, leucine] yielded a Specific surface area of 0.506 m^2/g.

As for Semaglutide [Bulk drug semaglutide], the bioavailability entry in data set [2] is “about 1%”. For the same compound, the Specific surface area in data set [1] was determined as 1.816 m^2/g.

Source of the values: patent US20240115497A1, “INHALABLE PHARMACEUTICAL POWDER FORMULATION AND PREPARATION METHOD THEREFOR” (ZHEJIANG CUIZE PHARMACEUTICAL TECHNOLOGY CO., LTD., priority 2021, published 2024).
